According to patent publication US20240425569A1 (VISTERRA, published 2024):
Numbering of substitutions follows the chain as printed. Like-named read-outs stand apart in the source and are kept apart here.

Experiments:
[1] = molecular target: T1, Venezuela/2007 (serotype II EDIII); assay: SPR; row Venezuela/2007, serotype II, genotype SE-Asian/American
T1 construct: also called ED3-DV2/Venezuela07
T1 E protein domain III (EDIII): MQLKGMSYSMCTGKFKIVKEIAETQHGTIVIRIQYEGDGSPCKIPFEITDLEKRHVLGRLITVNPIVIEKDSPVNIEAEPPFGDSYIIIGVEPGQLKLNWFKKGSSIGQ

[2] = molecular target: T2, ED3-DV4/H241/Phil56 (EDIII of DENV-4 strain H241) (dengue virus serotype DENV-4, strain …, UniProt Q58HT7 572-679)
[3] = molecular target: T3, EDIII-DV3 (E protein domain III of dengue virus serotype DV-3) (dengue virus serotype DV-3, UniProt P27915 571-678)
T3 construct: also called DENV-3; EDIII of DV-3

[4] = molecular target: T4, EDIII-DV4 (E protein domain III of dengue virus serotype DV-4) (dengue virus serotype DV-4, UniProt P09866 572-679)
T4 construct: also called DENV-4

[5] = molecular target: T5, Cambodia/2008 (serotype III EDIII); assay: SPR; row Cambodia/2008, serotype III, genotype II
T5 construct: Genotype II; also called ED3-DV3/Cambodia08
T5 E protein domain III (EDIII): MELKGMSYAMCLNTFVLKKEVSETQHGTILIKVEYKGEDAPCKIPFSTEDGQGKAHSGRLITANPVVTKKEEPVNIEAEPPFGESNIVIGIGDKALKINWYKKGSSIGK

[6] = molecular target: T6, Nicaragua/2010 (serotype III EDIII)
T6 construct: also called ED3-DV3/Nicaragua10; DENV-3 Nic
T6 E protein domain III (EDIII): T5 E protein domain III (EDIII) with L12T, A40V, S57N, K94N

[7] = molecular target: T5, Cambodia/2008 (serotype III EDIII); assay: ELISA; row Cambodia/2008, serotype III, genotype II
[8] = molecular target: T7, Malaysia/2005 (serotype I EDIII)
T7 construct: also called ED3-DV1/Malaysia05
T7 E protein domain III (EDIII): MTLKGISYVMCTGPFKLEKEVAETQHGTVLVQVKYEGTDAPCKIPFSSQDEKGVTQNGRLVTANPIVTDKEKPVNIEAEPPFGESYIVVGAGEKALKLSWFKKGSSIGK

[9] = molecular target: T8, Philippines/1956 (H87)* (serotype III EDIII) (Dengue virus 3); assay: ELISA; row Philippines/1956 (H87)*, serotype III, genotype I
T8 construct: isolated EDIII protein

[10] = molecular target: T6, Nicaragua/2010 (serotype III EDIII)
[11] = molecular target: T9, EDIII-DV1 (E protein domain III of dengue virus serotype DV-1) (dengue virus serotype DV-1, UniProt P17763 573-680)
T9 construct: also called DENV-1; EDIII of DV-1
T9 chain: T7 E protein domain III (EDIII) with I6M, P14S, S48T, V54A, V61I

[12] = molecular target: T4, EDIII-DV4 (E protein domain III of …); assay: competition ELISA; column 'EDIII-DV4'
[13] = molecular target: T10, EDIII-DV2 (E protein domain III of dengue virus serotype DV-2) (dengue virus serotype DV-2, UniProt P14337 573-677); assay: competition ELISA
T10 construct: also called DENV-2; EDIII of DV-2

[14] = molecular target: T3, EDIII-DV3 (E protein domain III of …); assay: competition ELISA
[15] = molecular target: T9, EDIII-DV1 (E protein domain III of …); assay: competition ELISA
[16] = molecular target: T11, New Caledonia/2009 (serotype IV EDIII); assay: ELISA; row New Caledonia/2009, serotype IV, genotype IIb
T11 construct: also called ED3-DV4/NewCal09; DENV-4 NC
T11 E protein domain III (EDIII): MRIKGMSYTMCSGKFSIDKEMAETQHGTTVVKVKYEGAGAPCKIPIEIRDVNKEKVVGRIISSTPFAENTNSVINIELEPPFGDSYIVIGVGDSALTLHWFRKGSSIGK

[17] = molecular target: T2, ED3-DV4/H241/Phil56 (EDIII of DENV-4 …); assay: SPR; row Philippines/1956 (H241)*, serotype IV, genotype I
[18] = molecular target: T10, EDIII-DV2 (E protein domain III of …)
[19] = molecular target: T12, Mexico/1977 (BC287/97)* (serotype IV EDIII) (Dengue virus 4); assay: Kd table, method not stated; Ag DENV-4 BC2
T12 construct: isolated EDIII protein; also called EDIII of DENV-4 Mexico/1997 (BC287/97); DENV-4 BC2

[20] = molecular target: T13, New Guinea/1944 (NGC)* (serotype II EDIII) (Dengue virus 2); assay: Kd table, method not stated; Ag DENV-2 NGC
T13 construct: isolated EDIII protein; also called EDIII of DENV-2 NGC

B1: antibody D88 (antibody, V domains shown)
VH: QVQLVQSGAEVKKPGASVKVSCKAGFNIKDVYMSWVRQAPEQGLEWMGRIDPENGDTKYDPKLQGRVTMTADTSTNTAYMELRSLRSDDTAVYYCARGWEGFAYWGQGTLVTVSS
VL: DIVMTQSPASLAVSLGERATISCRASENVDKYGNSFMHWYQQKPGQPPKLLIYRASELQWGVPDRFSGSGSGTDFTLTISSLQAEDVAVYYCQRSNEVPWTFGQGTKLEIK
notes: also called mAb D88
**Q.** With B1 as the binder, how does the Kd [1] read?
**A.** 0.029 nM

**Q.** What about the Kd [2] of the same binder?
**A.** 100 nM

**Q.** And the Kd [3]?
**A.** 1.05 nM

**Q.** What about the Kd [4] of the same binder?
**A.** 5.01 nM

**Q.** And the Kd [5]?
**A.** 2.47 nM

**Q.** What about the Kd [6] of the same binder?
**A.** 3.36 nM

**Q.** And the Kd [7]?
**A.** 1.32 nM

**Q.** And the Kd [8]?
**A.** 0.064 nM

**Q.** And the Kd [9]?
**A.** 1.24 nM

**Q.** What about the Kd [10] of the same binder?
**A.** 3.3 nM

**Q.** What about the Kd [11] of the same binder?
**A.** 0.041 nM

**Q.** And the Kd [12]?
**A.** 6.12 nM

**Q.** And the Kd [13]?
**A.** < 0.1 nM

**Q.** What about the Kd [14] of the same binder?
**A.** 1.21 nM

**Q.** And the Kd [15]?
**A.** < 0.1 nM

**Q.** And the Kd [16]?
**A.** 10.8 nM

**Q.** And the Kd [17]?
**A.** 118 nM

**Q.** And the Kd [18]?
**A.** 0.016 nM

**Q.** What about the Kd [19] of the same binder?
**A.** 7.2 nM

**Q.** What about the Kd [20] of the same binder?
**A.** < 0.1 nM
